Reference: patent US20210179728A1 (OSE IMMUNOTHERAPEUTICS, published 2021)

Key:
[1] = target: T1, recombinant hSIRPa (Sino Biologicals, reference 11612-H08H) (human, UniProt P78324 31-370); test: BLI (Blitz); SIRPa-His on Ni-NTA biosensor, antibody at 20 ug/ml, no SP-D [B, table A]
T1 construct: also called SIRPa-His; human SIRPa-His; not shown: His tag (histidine tail)

[2] = target: T1, recombinant hSIRPa (Sino Biologicals, …); test: BLI (Blitz); SIRPa-His on Ni-NTA biosensor pre-incubated with SP-D at 100 ug/ml, then antibody at 20 ug/ml [B, table A]
Experimental: FIG. 6. […] SIRPa-His recombinant protein was immobilized onto a NINTA biosensor at 10 μg/ml and the anti-SIRPa antibody was added at 20 μg/ml (saturating concentration).
In a first step, Sirp-a (His) recombinant protein (Sino Biologicals, Beijing, China; reference 11612-H08H) was immobilized at 10 μg/ml by histidine tail into a Ni-NTA biosensor (Forte Bio; USA; reference 18-0029) for 30 seconds. […] Then, anti-SIRPa antibodies were associated at 20 μg/mL (saturating concentration) for 120 seconds. The dissociation of anti-SIRPa antibody was made in kinetics buffer for 120 seconds. Analysis data was made with the Blitz pro 1.2 software, which calculated association constant (ka) and dissociation constant (kd) and determined the affinity constant KD […].

[3] = target: T1, recombinant hSIRPa (Sino Biologicals, …); test: SPR (Biacore); SIRPa-His immobilized on CM5 chip, antibody injected
Experimental: FIG. 2. Affinity analysis by Biacore of anti-SIRP antibodies on human SIRPa recombinant protein. SIRPa-His recombinant protein was immobilized onto a CM5 chip at 5 μg/ml (500 RU) and the indicated antibodies were added at different concentration.
Method: Recombinant hSIRPa (Sino Biologicals, Beijing, China; reference 11612-H08H) was immobilized into a CM5 sensor chip (GeHealthcare; France) at 5 μg/ml (500 RU) and antibodies were applied at different concentrations with a flow rate of 40 μl/min. Analysis was performed with a BIAcore 3000 (Biacore, GeHealthcare).

[4] = target: T1, recombinant hSIRPa (Sino Biologicals, …); test: competition ELISA on immobilized SIRPa; competitor CD47Fc at 0.04 ug/ml, anti-human Fc detection
Experimental: (§1) Method: For competitive ELISA assay, recombinant hSIRPa (Sino Biologicals, Beijing, China; reference 11612-H08H) was immobilized on plastic at 0.5 μg/ml in carbonate buffer (pH9.2).

[5] = target: T1, recombinant hSIRPa (Sino Biologicals, …); test: ELISA on immobilized SIRPa-His, peroxidase anti-human IgG, DO 450nm [panel ICOSL]
Experimental: (§2) Method: For ELISA assay, recombinant hSIRPa (Sino Biologicals, Beijing, China; reference 11612-H08H) was immobilized on plastic at 0.5 μg/ml in carbonate buffer (pH9.2) and different modified anti-SIRPa antibodies were added to measure binding to SIRPa.

CD28Fc [6] = target: T2, CD28Fc (human, UniProt P10747 19-152, limits assumed); test: ELISA: modified antibody (concentration on the axis) captured on SIRPa-His, then CD28Fc, detected with mouse anti-human CD28 [panel ICOSL]
T2 construct: not shown: Fc; not specified
Source text: (§3) FIG. 24. Ligand binding assay with the different modified anti-SIRPa antibodies by ELISA.

PDL1Fc = target: T3, PDL1Fc (human, UniProt Q9NZQ7 19-238); test: ELISA: modified antibody (concentration on the axis) captured on SIRPa-His, then PDL1Fc, detected with mouse anti-human PDL1 [panel PD1]
T3 construct: not shown: Fc; not specified
Source text: as §3

[7] = target: T1, recombinant hSIRPa (Sino Biologicals, …); test: ELISA on immobilized SIRPa-His, peroxidase anti-human IgG, DO 450nm [panel PD1]
Experimental: as §2

[8] = target: T1, recombinant hSIRPa (Sino Biologicals, …); test: competition ELISA on coated SIRPa-His; competitor biotinylated CD47-Fc at 6 ug/ml, streptavidin-peroxidase [panel PD1]
Experimental: as §1

[9] = target: T1, recombinant hSIRPa (Sino Biologicals, …); test: competition ELISA on coated SIRPa-His; competitor biotinylated CD47-Fc at 6 ug/ml, streptavidin-peroxidase [panel PDL1]
Experimental: as §1

PD1His = target: T4, PD1His (human, UniProt Q15116 25-170, limits assumed); test: ELISA: modified antibody (concentration on the axis) captured on SIRPa-His, then PD1His, detected with mouse anti-His [panel PDL1]
T4 construct: not shown: His tag
Source text: as §3

[10] = target: T1, recombinant hSIRPa (Sino Biologicals, …); test: competition ELISA on coated SIRPa-His; competitor biotinylated CD47-Fc at 6 ug/ml, streptavidin-peroxidase [panel 4-1BBL]
Experimental: as §1

CD28Fc [11] = target: T2, CD28Fc; test: ELISA: modified antibody on immobilized SIRPa-His, CD28Fc added and detected with mouse anti-human CD28
Source text: as §3

B1: mouse antibody 18D5 (antibody, mouse IgG2b, kappa)
heavy: QVQLQQPGAELVRPGSSVKLSCKASGYTFTSYWVHWVKQRPIQGLEWIGNIDPSDSDTHYNQKFKDKASLTVDKSSSTAYMQLSSLTFEDSAVYYCVRGGTGTMAWFAYWGQGTLVTVSAAKTTPPSVYPLAPGCGDTTGSSVTLGCLVKGYFPESVTVTWNSGSLSSSVHTFPALLQSGLYTMSSSVTVPSSTWPSQTVTCSVAHPASSTTVDKKLEPSGPISTINPCPPCKECHKCPAPNLEGGPSVFIFPPNIKDVLMISLTPKVTCVVVDVSEDDPDVQISWFVNNVEVHTAQTQTHREDYNSTIRVVSTLPIQHQDWMSGKEFKCKVNNKDLPSPIERTISKIKGLVRAPQVYILPPPAEQLSRKDVSLTCLVVGFNPGDISVEWTSNGHTEENYKDTAPVLDSDGSYFIYSKLNMKTSKWEKTDSFSCNVRHEGLKNYYLKKTISRSPGK
light: DVVMTQTPLSLPVSLGDQASISCRSSQSLVHSYGNTYLYWYLQKPGQSPKLLIYRVSNRFSGVPDRFSGSGSGTDFTLKISRVEAEDLGVYFCFQGTHVPYTFGSGTKLEIKRADAAPTVSIFPPSSEQLTSGGASVVCFLNNFYPKDINVKWKIDGSERQNGVLNSWTDQDSKDSTYSMSSTLTLTKDEYERHNSYTCEATHKTSTSPIVKSFNRNEC
notes: mouse monoclonal anti-human SIRPa antibody; also called m18D5; m18D5 clone
B1 was tested, and the Kd [1] was 111 nM, the koff [1] was 0.00176 s⁻¹ and the kon [1] was 15800 M⁻¹ s⁻¹. It also gave a Kd [2] of 28.6 nM, a koff [2] of 0.0109 s⁻¹ and a kon [2] of 380000 M⁻¹ s⁻¹. It also gave a Kd [3] of 0.193 nM, a koff [3] of 1.2e-05 s⁻¹ and a kon [3] of 62300 M⁻¹ s⁻¹. For the same binder, the “IC50 (read off the curve)” value [4] was ~0.5 µg/mL.

B2: modified anti-SIRPa HEFLB antibody with ECD of ICOSL on the light chain (antibody, human IgG4 S228P, kappa)
heavy: not shown
light: DVVMTQSPLSLPVTLGQPASISCRSSQSLVHSYGNTYLYWFQQRPGQSPRLLIYRVSNRFSGVPDRFSGSGSGTDFTLKISRVEAEDVGVYYCFQGTHVPYTFGGGTKVEIKRTVAAPSVFIFPPSDEQLKSGTASVVCLLNNFYPREAKVQWKVDNALQSGNSQESVTEQDSKDSTYSLSSTLTLSKADYEKHKVYACEVTHQGLSSPVTKSFNRGECGGGGSGGGGSGGGGSDTQEKEVRAMVGSDVELSCACPEGSRFDLNDVYVYWQTSESKTVVTYHIPQNSSLENVDSRYRNRALMSPAGMLRGDFSLRLFNVTPQDEQKFHCLVLSQSLGFQEVLSVEVTLHVAANFSVPVVSAPHSPSQDELTFTCTSINGYPRPNVYWINKTDNSLLDQALQNDTVFLNMRGLYDVVSVLRIARTPSVNIGCCIENVLLQQNLTVGSQTGNDIGERDKITENPVSTGEKNAAT
notes: as m32, ECD of ICOSL; also called VH+VLprot (ICOSL); HEF + LB-ICOSL
In the case of B2, the “EC50 (read off the curve)” value [5] is reported as ~0.006 µg/mL and the binding result (CD28Fc [6]) is reported as “binds”.

B3: modified anti-SIRPa HEFLB antibody with ECD of PD1 on the heavy chain (antibody, human IgG4 S228P, kappa)
heavy: not shown
light: DVVMTQSPLSLPVTLGQPASISCRSSQSLVHSYGNTYLYWFQQRPGQSPRLLIYRVSNRFSGVPDRFSGSGSGTDFTLKISRVEAEDVGVYYCFQGTHVPYTFGGGTKVEIKRTVAAPSVFIFPPSDEQLKSGTASVVCLLNNFYPREAKVQWKVDNALQSGNSQESVTEQDSKDSTYSLSSTLTLSKADYEKHKVYACEVTHQGLSSPVTKSFNRGEC
notes: also called VHprot+VL (PD1); HEF-PD1 + LB
B3 was tested, and the binding result (PDL1Fc) was “binds”, the “EC50 (read off the curve)” value [7] was ~0.008 µg/mL and the “IC50 (read off the curve)” value [8] was ~0.2 µg/mL.

B4: modified anti-SIRPa HEFLB antibody with ECD of PDL1 on the heavy chain (antibody, human IgG4 S228P, kappa)
heavy: not shown
light: B3 light
notes: as m25, ECD of PDL1; also called VHprot+VL (PDL1); VH-PDL1
With B4 the “IC50 (read off the curve)” value [9] was ~0.3 µg/mL and the binding result (PD1His) was “binds”.

B5: modified anti-SIRPa HEFLB antibody with ECD of 4-1BBL on the heavy chain (antibody, human IgG4 S228P, kappa)
heavy: not shown
light: B3 light
notes: as m25, ECD of 4-1BBL; also called VHprot+VL (4-1BBL); VH-4-1BBL
With B5 the “IC50 (read off the curve)” value [10] was ~0.3 µg/mL.

B6: modified anti-SIRPa HEFLB antibody with ECD of ICOSL on the heavy chain (antibody, human IgG4 S228P, kappa)
heavy: not shown
light: B3 light
notes: as m25, ECD of ICOSL; also called VHprot+VL (ICOSL); HEF-ICOSL + LB
B6 was tested, and the “EC50 (read off the curve)” value [5] was ~0.008 µg/mL and the binding result (CD28Fc [11]) was “binds”.
